Assays:
human C5 [1] = biological target: T1, human C5 (human, UniProt P01031 19-673; P01031 678-1676, Beta and alpha chains are disulfide-linked and the protein is glycosylated.); assay: Biacore T200, captured antibody, recombinant human C5 injected, pH 7.4, 37 C, 1:1 fit
T1 construct: Either in-house recombinant C5 or plasma derived C5 (CALBIOCHEM) was used; also called recombinant human C5; plasma derived human C5
Protocol: (§1) Anti-C5 antibodies were captured on an immobilized molecule, and then human C5 was injected. The running buffers used were ACES pH 7.4 and pH 5.8 (20 mM ACES, 150 mM NaCl, 1.2 mM CaCl₂, 0.05% Tween 20). Kinetics parameters at both pH conditions were determined by fitting the sensorgrams with 1:1 binding -RI (without bulk effect adjustment) model using Biacore T200 Evaluation software, version 2.0 (GE Healthcare).
(§2) These variants were examined for the binding against human C5.

cynomolgus monkey C5 [2] = biological target: T2, cynomolgus monkey C5 (cynomolgus monkey, limits assumed); assay: Biacore T200, 37 C, kd from the dissociation phase only, association at pH 7.4 and dissociation at pH 5.8
T2 construct: also called recombinant cynomolgus monkey C5
T2 chain 1: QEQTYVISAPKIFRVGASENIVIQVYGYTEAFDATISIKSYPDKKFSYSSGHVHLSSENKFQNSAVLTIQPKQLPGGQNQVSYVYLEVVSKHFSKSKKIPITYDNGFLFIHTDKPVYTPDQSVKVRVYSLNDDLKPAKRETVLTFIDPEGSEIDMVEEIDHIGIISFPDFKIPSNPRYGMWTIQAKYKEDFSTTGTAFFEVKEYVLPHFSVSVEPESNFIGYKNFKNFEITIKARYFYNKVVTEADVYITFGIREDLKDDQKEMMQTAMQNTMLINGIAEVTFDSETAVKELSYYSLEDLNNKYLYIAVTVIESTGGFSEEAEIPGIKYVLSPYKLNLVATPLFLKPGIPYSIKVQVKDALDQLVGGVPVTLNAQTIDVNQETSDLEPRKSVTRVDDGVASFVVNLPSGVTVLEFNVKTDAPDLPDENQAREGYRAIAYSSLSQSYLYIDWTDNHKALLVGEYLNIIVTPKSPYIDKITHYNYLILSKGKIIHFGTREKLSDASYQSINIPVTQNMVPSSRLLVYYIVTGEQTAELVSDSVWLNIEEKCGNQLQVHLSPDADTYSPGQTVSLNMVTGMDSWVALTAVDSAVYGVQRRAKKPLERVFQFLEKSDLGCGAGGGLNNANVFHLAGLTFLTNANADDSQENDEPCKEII
T2 chain 2: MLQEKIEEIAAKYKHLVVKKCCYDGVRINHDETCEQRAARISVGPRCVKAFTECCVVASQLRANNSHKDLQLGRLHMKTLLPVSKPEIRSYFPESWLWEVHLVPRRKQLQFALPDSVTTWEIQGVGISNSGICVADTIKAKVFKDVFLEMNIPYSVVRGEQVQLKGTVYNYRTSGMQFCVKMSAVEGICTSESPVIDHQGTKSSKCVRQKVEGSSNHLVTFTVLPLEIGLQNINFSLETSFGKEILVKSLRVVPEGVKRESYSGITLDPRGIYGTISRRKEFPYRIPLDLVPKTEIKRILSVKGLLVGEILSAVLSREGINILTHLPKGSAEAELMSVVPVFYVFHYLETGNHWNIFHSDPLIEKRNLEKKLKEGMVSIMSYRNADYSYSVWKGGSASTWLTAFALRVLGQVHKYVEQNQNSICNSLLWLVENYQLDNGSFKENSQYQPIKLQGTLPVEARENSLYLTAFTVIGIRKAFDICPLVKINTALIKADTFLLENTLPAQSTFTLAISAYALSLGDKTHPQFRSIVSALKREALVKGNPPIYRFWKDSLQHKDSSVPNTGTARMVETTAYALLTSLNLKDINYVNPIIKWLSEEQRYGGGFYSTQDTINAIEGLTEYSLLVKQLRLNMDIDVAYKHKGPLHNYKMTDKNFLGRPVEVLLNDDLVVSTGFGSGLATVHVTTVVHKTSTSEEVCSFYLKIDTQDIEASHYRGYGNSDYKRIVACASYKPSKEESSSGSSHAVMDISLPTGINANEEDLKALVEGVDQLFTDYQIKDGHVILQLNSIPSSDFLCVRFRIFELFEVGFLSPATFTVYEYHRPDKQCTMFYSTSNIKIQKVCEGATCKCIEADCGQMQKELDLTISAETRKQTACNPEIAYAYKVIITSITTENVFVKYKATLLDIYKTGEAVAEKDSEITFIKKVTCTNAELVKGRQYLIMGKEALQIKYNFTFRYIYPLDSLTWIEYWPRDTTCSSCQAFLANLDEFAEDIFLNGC
Protocol: as §1

cynomolgus monkey C5 [3] = biological target: T2, cynomolgus monkey C5; assay: Biacore T200, 37 C, kd from the dissociation phase only, dissociation at pH 7.4
Protocol: as §1

human C5 [4] = biological target: T1, human C5; assay: Biacore T200, 37 C, kd from the dissociation phase only, association at pH 7.4 and dissociation at pH 5.8
Protocol: as §1, §2

cynomolgus monkey C5 [5] = biological target: T2, cynomolgus monkey C5; assay: Biacore T200, captured antibody, cynomolgus monkey C5 injected, pH 7.4, 37 C, 1:1 fit
Protocol: as §1

human C5 [6] = biological target: T1, human C5; assay: Biacore T200, 37 C, kd from the dissociation phase only, dissociation at pH 7.4
Protocol: as §1, §2

B1: optimized 20//18 (bispecific antibody, V domains shown)
VH 1: QVQLQESGPGLVKPSETLSLTCAVSGYSISSGYYWGWIRQPPGKGLEWIGSIYHSGSTYYNKKLKSRVTISVDTSKNQFSLKLSSVTAADTAVYYCARHDPTWYHHGYFDYWGQGTLVTVSS
VH 2: QVQLVQSGAEVKKPGSSVKVSCKASGGTFSSYSISWVRQAPGQGLEWMGGIIPIFGTANYAQKFQGRVTITADESTSTAYMELSSLRSEDTAVYYCARQLYGYYELDIWGQGTLVTVSS
VL: DIQMTQSPSSLSASVGDRVTITCRASQSIHNDLAWYQQKPGKAPKLLIYEASELQSGVPSRFSGSGSGTDFTLTISSLQPEDFATYYCQHYSSYPYTFGQGTKVEIK
notes: Bispecific IgG with the common light chain 20L233
Human C5 [1]
  Kd: 0.268 nM
  koff: 9.72e-05 s⁻¹
  kon: 362000 M⁻¹ s⁻¹
Cynomolgus monkey C5 [2]
  koff: 0.107 s⁻¹
Cynomolgus monkey C5 [3]
  koff: 0.000224 s⁻¹
Human C5 [4]
  koff: 0.0594 s⁻¹
Cynomolgus monkey C5 [5]
  Kd: 0.664 nM
  koff: 0.000236 s⁻¹
  kon: 355000 M⁻¹ s⁻¹
Human C5 [6]
  koff: 0.000104 s⁻¹

From patent US20180016327A1 (Chugai, published 2018)
